These results are taken from patent US20100285583A1, “COMPOUNDS AND METHODS FOR INHIBITING PLATELET AGGREGATION” (priority 2009, published 2010).

The nature of test [1]: Protein-lipid overlay assay, sulfatides. The note with it: Sphingolipid strips, GST-Dab2 PTB. The test is classed as binding. On the procedure:
Membrane strips (SphingoStrips™) spotted with 100 pmol of sphingolipids were purchased from Echelon Research Laboratories. Membrane strips were incubated with 0.1 μg/ml of the Dab2 PTB domain or its mutants in 20 mM Tris-HCl (pH 8.0), 150 mM NaCl, 0.1% Tween-20 and 3% fatty acid-free bovine serum albumin overnight at 4° C. Following four washes with the same buffer, proteins bound to the membrane strips were probed with rabbit anti-GST antibody (Santa Cruz Biotech). Donkey anti rabbit-horse radish peroxidase (HRP) antibody was obtained from GE Healthcare. Detection was carried out using ECL reagent (Pierce). Also, lipid strips were prepared by spotting 1 μl of either sulfatides or PtdIns(4,5)P2 dissolved in chloroform:methanol:water (1:2:0.8 and 65:35:8, respectively) onto Hybond-C extra membranes (GE Healthcare) and protein binding was monitored as described above. Bound protein was quantified using the AlphaImager program and binding was calculated as a percentage of GST-PTB binding to 100 pmoles of spotted lipid.

Test [2] is described as follows: Liposome-binding assay, sulfatide liposomes. The note with it: liposomes with sulfatides. On the procedure: (§1) Lipid stocks including sulfatides, PE, PS, and PtdIns(4,5)P2 were dissolved in chloroform:methanol:water (1:2;0.8, 65:35:8, 65:35:4 and 65:35:8, respectively), whereas cholesterol and PC were dissolved in chloroform:methanol (1:1). Sulfatides liposomes were prepared in a weight ratio of 1:1:1:4 of PC:PE:cholesterol:sulfatides. PtdIns(4,5)P2 liposomes were prepared in a percent ratio of 50:20:10:10:10 of PC:PE:PS:cholesterol:PtdIns(4,5)P2. Controls were prepared by adjusting the ratios with PC. Lipid films were generated by lyophilization overnight and hydrated in 20 mM Tris-HCl (pH 6.8), 100 mM NaCl, 2 mM dithiothreitol (DTT) at 1 mg/mL and freeze-thawed 3 times. Liposomes were sonicated and further pelleted and suspended in 4 mg/mL. Ten μg of protein were incubated with 125 μg of total lipids for 20 min at RT. Liposome-bound and free-protein samples were separated by centrifugation and analyzed by SDS-PAGE. Bands were quantified using AlphaImager, and the percentage of total protein each fraction contained was calculated from the total protein.

Test [3] in a line: Liposome-binding assay, PtdIns(4,5)P2 liposomes. Particulars: liposomes with PtdIns(4,5)P2. As for the experimental part: as §1
Test [4] has as its system Human washed platelets. As to the kind of experiment: Platelet immunofluorescence analysis (subcellular localization). In kind it is cell-based. Particulars: 1.9 μM. As for the experimental part:
Washed platelets (50 μl of […] in Tyrode's albumin buffer) were incubated with 1.9 μM of PTB domain constructs for 5 min at room temperature in the presence of 0.25 g/L fibrinogen. Aggregation was initiated by the addition of 10 μM TRAP. Reactions were incubated at room temperature unless otherwise indicated. Platelets were fixed with 0.4 mL of 3.7% formaldehyde in Phosphate Buffered Saline (PBS) for 30 min. Next, 20% goat serum was added to the fixed platelets, and 60% of the total fixed reaction was centrifuged using a Shandon cytospinner onto a Shandon coated cytoslide to achieve the appropriate platelet density for analysis. Slides were then washed twice with PBS for 10 min. Platelets were permeabilized with 0.5% Triton X-100 in PBS for 10 min and then blocked with 20% goat serum in PBS with 0.1% Triton X-100 for 1 h at room temperature. Platelets were washed 3 times with PBS with 0.1% Triton for 10 minutes and further incubated overnight with the anti-Dab2 antibody 1:100 (anti-p96; BD Transduction) in PBS with 0.1% Triton X-100 and 10% goat serum at 4° C. in a humidity chamber. Platelets were then washed and incubated with the anti-mouse Cy-3 conjugated goat antibody 1:250 and Alexa488 conjugated phalloidin (25 μg/mL) in PBS with 0.1% Triton X-100 and 10% goat serum for 2 h. Platelets were washed again and observed on an Olympus IX71 microscope using the Softworx Applied Precision software.
Mean pixel intensity was determined for 400 platelets from four fields each for 3 min and 10 min of treatments by manually drawing circles around individual platelets using the 2D Polygon tool in the Softworx software. For each time point, a threshold of significant mean pixel intensity was defined for the experiment. The percentage of countable platelets to exceed the threshold was calculated for each field and the average of four fields was computed with standard deviation. The ratio of internalization:binding is the quotient of these averages for a treatment.

For test [5], the system named is Human washed platelets. As to the kind of experiment: Platelet adhesion assay. The test is classed as cell-based. Particulars: 1.9 μM, TRAP. As for the experimental part:
Human washed platelets were incubated with BSA, Dab2 PTB or Dab2 PTB^4M (1.9 μM each) for 5 min at room temperature in the presence of 0.25 g/L fibrinogen. Aggregation was initiated by the addition of 10 μM TRAP, and reactions were incubated 20 min at 37° C. Samples were fixed with 3.7% formaldehyde in PBS, stained with Wright stain, and photographed. Wright stain was eluted with 20% ethanol, and absorbance was quantified at 415 nm.

The subject of test [6] is platelet surface αIIbβ3 integrin. As to the kind of experiment: Flow cytometry, platelet surface αIIbβ3 integrin. The test is classed as cell-based, human. Particulars: ADP 30 μM, sulfatide liposomes 50 μg/mL. On the procedure:
Washed platelets (2.5×10^5 platelets/μL) were kept unactivated or either activated with ADP (30 μM) or TRAP (10 μM). Both unactivated and activated platelets were incubated for 10 min at 23° C. with liposomes (50 μg/mL) either without (liposomes control) or with sulfatides, and N-PTB constructs (1 μM). Reactions were fixed with 1% formalin and incubated with PE- labeled CD62p anti-P-selectin (BioLegend) or FITC-labeled PAC-1 anti-integrin receptor (BD Transduction) antibodies. Bound antibodies were quantified using a FacsAria flow cytometer.
Once present, P-selectin is able to interact with sulfatides which triggers an internal phosphorylation pathway thought to be mediated by p38 (FIG. 12A) (Merten 2005). This cascade results in further de-granulation and an increase in surface P-selectin (Merten 2005). To monitor the de-granulation of platelets, two activation markers were evaluated using fluorescent antibodies specific for P-selectin and the αIIbβ3 integrin. Marker surface expression was quantified using fluorescence-activated cell sorting (FACS) analysis, and measuring the median fluorescent signal of 10,000 platelets. The median signal was used as our reference to quantify the data set as median values are less affected by the wide range of platelet signals and is therefore more representative of the population. […]

B1: N-PTB: N-terminal phosphotyrosine binding domain (residues 1-241) of human Disabled-2 (Dab2), expressed as GST-fusion in E. coli (protein)
chain: MSNEVETSATNGQPDQQAAPKAPSKKEKKKGPEKTDEYLLARFKGDGVKYKAKLIGIDDVPDARGDKMSQDSMMKLKGMAARGRSQGQHKQRIWVNISLSGIKIIDEKTGVIEHEHPVNKISFIARDVTDNRAFGYVCGGEGQHQFFAIKTGQQAEPLVVDLKDLFQVIYNVKKKEEEKKKIEEASKAVENGSEALMILDDQTNKLKSGVDQMDLFGDMSTPPDLNSPTESKDILLVDLNS
In the case of B1, the binding to sphingolipids result in test [1] is “preferentially bound to sulfatides”. Besides, the sulfatide binding entry in test [2] is listed as “bound to sulfatide-enriched liposomes”. The “PtdIns(4,5)P2 binding” value in test [3] is “bound to PtdIns(4,5)P2-containing liposomes”. Moreover, in test [4] (3 min after TRAP stimulation), the “localization at the platelet surface” value was “clearly localized at the platelet surface”. For the same molecule, in test [4] (10 min after activation), the internalization result is “internalized”. Also, in test [5], the “effect on platelet adhesion to fibrinogen” value is listed as “did not significantly affect platelet adhesion to fibrinogen”. Besides, the results for the “inhibition of sulfatide induced expression of αIIbβ3 integrin” value in test [6] and in test [6] (listed as N-PTB^4M) were “inhibition of sulfatide induced expression” and “no inhibition”, respectively.
